From article PMC8691596 (PLoS ONE, 2021)

Biological target: T1, anti-CD20 IgG1 L234S/L235T/G236R (human)
T1 construct: rituximab VH, as in m1; human IgG1 constant region; as the light chain of m1; also called 2–52; variant 52; source: HEK293, transient, purified (Protein A)
Experiment: SPR; antibody captured by biotin-labelled anti-human κ light chain on streptavidin CM5; soluble Fcγ receptor injected at one concentration (12.5 nM to 18 μM); HBS-EP+ pH 7.4, 25°C; Biacore 8K
Conditions: both partners purified

| response | Binder |
| --- | --- |
| < 1 RU | cynomolgus monkey FcγRIIb extracellular domain, C-terminal hexa-His (receptor) TPAAPPKAVLKLEPPWINVLREDSVTLTCGGAHSPDSDSTQWFHNGNLIPTHTQPSYRFKANNNDSGEYRCQTGRTSLSDPVHLTVLSEWLALQTPHLEFREGETIMLRCHSWKDKPLIKVTFFQNGKSKKFSHMDPNFSIPQANHSHSGDYHCTGNIGYTPYSSKPVTITVQVP |
| < 1 RU | cynomolgus monkey FcγRI extracellular domain, C-terminal hexa-His (receptor) QVDTTKAVITLQPPWVSVFQEETVTLQCEVPRLPGSSSTQWFLNGTATQTSTPSYRITSASVKDSGEYRCQRGPSGRSDPIQLEIHRDWLLLQVSSRVFTEGEPLALRCHAWKDKLVYNVLYYQNGKAFKFFYRNSQLTILKTNISHNGAYHCSGMGKHRYTSAGVSVTVKELFPAPVLNASVTSPLLEGNLVTLSCETKLLLQRPGLQLYFSFYMGSKTLRGRNTSSEYQILTARREDSGFYWCEATTEDGNVLKRSPELELQVLGLQLPTPVWLH |
| < 1 RU | cynomolgus monkey FcγRIIa extracellular domain, C-terminal hexa-His (receptor) KAVLKLEPPWINVLREDSVTLTCGGAHSPDSDSTQWFHNGNLIPTHTQPSYRFKANNNDSGEYRCQTGRTSLSDPVHLTVLSEWLALQTTHLEFREGETIMLRCHSWKDKPLIKVAFFQNGKSKKFSHMNPNFSIPQANHSHSGDYHCTGNIGYTPYSSKPVTITVQGLSSLVPSVGSSSPTG |
